# Experimental data: US11453711B2, “Fusion proteins of GLP-1 and GDF15 and conjugates thereof” (BEIJING QL BIOPHARMACEUTICAL CO., LTD., priority 2019, dated 2022)
# Key:
# [1] = Efficacy in db/db mice: body weight, food intake, glucose, biomarkers, daily sc 14 days; assay type: in vivo
# [2] = PK study in non-human primates, single sc dose 5 nmol/kg, plasma ELISA; details: monkey, single sc dose 5 nmol/kg
# Experimental: Plasma samples were collected pre-dose (−5 min), 2 hr, 4 hr, 6 hr, 8 hr, 24 hr, 48 hr, 72 hr, 96 hr, 120 hr, 144 hr, 216 hr, 288 hr, 360 hr, 432 hr and 504 hr after the injection. The concentrations of the fusion protein conjugates in the plasma were measured by an ELISA assay which has immunoreactivity towards both GDF15 and intact N-terminal of GLP-1. Based on the graph showing plasma concentration of each protein versus time after subcutaneous injection, the pharmacokinetic parameters (including Tmax, Cmax, T1/2, AUC) were calculated by WinNonlin software.
# [3] = Pharmacokinetic measurement in mouse, single sc dose 30 nmol/kg, plasma ELISA
# Experimental: Each fusion protein was injected subcutaneously into C57BL/6 mice (n=3/group) once and plasma samples were collected at designed time points and analyzed by ELISA method. Plasma concentrations are indicated as mean values and standard error (SEM).
# 6-8 week old male C57BL/6 mice were administrated in a single subcutaneous dose of 30 nmol/kg of the fusion protein conjugates or unconjugated fusion proteins (i.e., MLC002, MLC004, MLC005, MLC006, MLC007, MLC008, MLC009, MLC013, MLC017, MLC047, MLC074, MLC075, MLC089, MLC093, MLC003 and MLC019) (n=3/group). Plasma samples were collected pre-dose (−5 min), 0.5 hr, 1 hr, 2 hr, 4 hr, 6 hr, 8 hr, 12 hr, 24 hr, 48 hr and 72 hr after the injection. The concentrations of the fusion protein conjugates in the plasma were measured by an ELISA assay which has immunoreactivity towards both GDF15 and intact N-terminal of GLP-1. Based on the graph showing plasma concentration of each protein versus time after subcutaneous injection, the pharmacokinetic parameters (including Tmax, Cmax, T1/2, AUC) were calculated by WinNonlin software.
# [4] = Stability study: SEC-HPLC (% HMW, % LMW), RP-UPLC and LC/MS after 2 weeks storage; assay type: physicochemical
# Experimental: To test the stability, the different conjugated fusion proteins were formulated in buffers with different compositions (pH6, 7, 7.4 and 8.0) and stored at 4° C. and 37° C. or 40° C. for 2 weeks. The % High Molecular Weight aggregate (HMW) and % Low Molecular Weight (LMW) were analyzed by size exclusion chromatography (SEC)-HPLC. The concentration and modifications were analyzed by reverse phase (RP)-UPLC and LC/MS.
# [5] = 30 nmol/kg, FIG. 8A-C, versus Semaglutide, Tirzepatide and MLC014
molecule,measurement,setting,value
"MLC093: fusion polypeptide SEQ ID NO: 381 conjugated with Moiety B at 33C of Linker (conjugate, Moiety B conjugated at linker Cys33) HGEGTFTSDVSSYLEEQAAKEFIAWLVRGGGGAQPGAQPGAQPGAQPGAQPGAQPGAQPGAQPCQEPGAQPGQEPGAQPGQEPGAQPGQEPGAQPGQEPGAQPGQEPGAQPARQGDHCPLGPGRCCRLHTVRASLEDLGWADWVLSPREVQVTMCIGACPSQFRAANLHAQIKTSLHRLKPDTVPAPCCVPASYNPMVLIQKTDTGVSLQTYDDLLAKDCHCI",body weight loss,[1]; [5],"more body weight loss, food intake suppression and glycemic control"
same,food intake suppression,[1]; [5],"more body weight loss, food intake suppression and glycemic control"
same,glycemic control,[1]; [5],"more body weight loss, food intake suppression and glycemic control"
same,liver triglyceride content,"[1]; Day 15, FIG. 8I",a trend in reducing liver triglyceride content
same,efficacy,[1]; FIG. 8 study,better efficacy than Semaglutide and GDF15 derivative (MLC014)
same,plasma triglyceride concentration,"[1]; terminal plasma Day 15, FIG. 8G",induced the reduction
same,plasma ALT concentration,"[1]; terminal plasma Day 15, FIG. 8H",induced the reduction
same,AUC0-96 h,[2],3.843 µM·h
same,Terminal t1/2,[2],41 h
same,Tmax,[2],16 h
same,Cmax,[2]; read-out: Cmax (nmol/L),56.2 nmol/L
same,Cmax,"[3]; read-out: Cmax (nmol/L), single sc dose 30 nmol/kg",120 nmol/L
same,AUC0-24 h,[3]; single sc dose 30 nmol/kg,2.1637 µM·h
same,Terminal t1/2,[3]; single sc dose 30 nmol/kg,15.9 h
same,Tmax,[3]; single sc dose 30 nmol/kg,16.0 h
same,HMW %,"[4]; 4.65 mg/mL at 4° C., Day 0",0%
same,LMW %,"[4]; 4.65 mg/mL at 4° C., Day 0",0.43%
same,Main peak %,"[4]; 4.65 mg/mL at 4° C., Day 0",99.56%
same,HMW %,"[4]; 4.65 mg/mL at 4° C., Day 7",0%
same,LMW %,"[4]; 4.65 mg/mL at 4° C., Day 7",0.51%
same,Main peak %,"[4]; 4.65 mg/mL at 4° C., Day 7",99.46%
same,HMW %,"[4]; 4.65 mg/mL at 4° C., Day 14",0%
same,LMW %,"[4]; 4.65 mg/mL at 4° C., Day 14",0.39%
same,Main peak %,"[4]; 4.65 mg/mL at 4° C., Day 14",99.6%
same,HMW %,"[4]; 4.65 mg/mL at 37° C., Day 0",0%
same,LMW %,"[4]; 4.65 mg/mL at 37° C., Day 0",0.43%
same,Main peak %,"[4]; 4.65 mg/mL at 37° C., Day 0",99.56%
same,HMW %,"[4]; 4.65 mg/mL at 37° C., Day 7",0.53%
same,LMW %,"[4]; 4.65 mg/mL at 37° C., Day 7",0.56%
same,Main peak %,"[4]; 4.65 mg/mL at 37° C., Day 7",98.86%
same,HMW %,"[4]; 4.65 mg/mL at 37° C., Day 14",0.8%
same,LMW %,"[4]; 4.65 mg/mL at 37° C., Day 14",0.53%
same,Main peak %,"[4]; 4.65 mg/mL at 37° C., Day 14",98.6%
same,HMW %,"[4]; 20 mg/mL at 4° C., Day 0",0%
same,LMW %,"[4]; 20 mg/mL at 4° C., Day 0",0.38%
same,Main peak %,"[4]; 20 mg/mL at 4° C., Day 0",99.6%
same,HMW %,"[4]; 20 mg/mL at 4° C., Day 7",0%
same,LMW %,"[4]; 20 mg/mL at 4° C., Day 7",0.49%
same,Main peak %,"[4]; 20 mg/mL at 4° C., Day 7",99.49%
same,HMW %,"[4]; 20 mg/mL at 4° C., Day 14",0%
same,LMW %,"[4]; 20 mg/mL at 4° C., Day 14",0.44%
same,Main peak %,"[4]; 20 mg/mL at 4° C., Day 14",99.24%
same,HMW %,"[4]; 20 mg/mL at 37° C., Day 0",0%
same,LMW %,"[4]; 20 mg/mL at 37° C., Day 0",0.38%
same,Main peak %,"[4]; 20 mg/mL at 37° C., Day 0",99.6%
same,HMW %,"[4]; 20 mg/mL at 37° C., Day 7",1.03%
same,LMW %,"[4]; 20 mg/mL at 37° C., Day 7",0.53%
same,Main peak %,"[4]; 20 mg/mL at 37° C., Day 7",98.38%
same,HMW %,"[4]; 20 mg/mL at 37° C., Day 14",1.81%
same,LMW %,"[4]; 20 mg/mL at 37° C., Day 14",0.55%
same,Main peak %,"[4]; 20 mg/mL at 37° C., Day 14",97.64%
same,HMW %,"[4]; 20 mg/mL at 40° C., Day 0",0.56%
same,LMW %,"[4]; 20 mg/mL at 40° C., Day 0",0.54%
same,Main peak %,"[4]; 20 mg/mL at 40° C., Day 0",98.83%
same,HMW %,"[4]; 20 mg/mL at 40° C., Day 14",2.26%
same,LMW %,"[4]; 20 mg/mL at 40° C., Day 14",0.84%
same,Main peak %,"[4]; 20 mg/mL at 40° C., Day 14",96.76%
same,physical and chemical stability,"[4]; 4° C., 37° C. and 40° C., 2 weeks",high physical and chemical stability
